Paper PMC7615827

Target: ABD-AS25 (albumin binding domain fused to monobody AS25; ABD-…-AS25-Cys)
Assay: ITC

| Substance | Kd | stoichiometry N |
| --- | --- | --- |
| Bcr-Abl SH2 domain (from UniProt P00519 127-217) (domain or fragment) | 42.4 nM | 1 |
| Human Serum Albumin (from UniProt P02768 25-609) (natural protein) | 5.11 nM | – |
